# From article PMC11905881, “Incorporation of polymerizable linkers into aptamers for high-affinity nanoscale molecularly imprinted polymer hybrids: analysis of positional selectivity†”
# What was measured:
# [1] = biological target: trypsin (UniProt P00760); assay: SPR; settings: embedded in imprinted polymer nanoparticle, SPR: PBST (10 mM phosphate buffered saline, pH 7.4, 0.01% Tween 20), 25 °C, nanoparticles immobilized on carboxymethyl dextran Au chips, protein 4-64 nM, n = 3
# [2] = biological target: lysozyme (UniProt P00698 19-147); assay: SPR; lysozyme-imprinted polymer hybrid; SPR: PBST (10 mM phosphate buffered saline, pH 7.4, 0.01% Tween 20), 25 °C; nanoparticles immobilized on carboxymethyl dextran Au chips, protein 4-64 nM; n = 3; settings: protein: commercial
# Chain of lysozyme (P00698 19-147): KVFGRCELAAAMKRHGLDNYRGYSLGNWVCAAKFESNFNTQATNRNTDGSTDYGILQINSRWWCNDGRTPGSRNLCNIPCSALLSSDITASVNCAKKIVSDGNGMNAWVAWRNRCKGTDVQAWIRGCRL
# Chain of trypsin (P00760 24-246): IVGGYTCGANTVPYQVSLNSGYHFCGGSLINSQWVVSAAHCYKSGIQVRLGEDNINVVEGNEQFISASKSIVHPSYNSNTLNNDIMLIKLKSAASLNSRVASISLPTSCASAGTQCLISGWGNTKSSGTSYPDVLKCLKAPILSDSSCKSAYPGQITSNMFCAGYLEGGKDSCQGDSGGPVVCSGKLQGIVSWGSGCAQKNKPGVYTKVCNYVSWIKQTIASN
molecule,measurement,setting,value
ATCTACGAATTCATCAGGGCTAAAGAGTGCAGAGTTACTTAG [AptaMIP-1 oligo],Kd,"[1]; six carboxy-dT (ester or amide, polymerizable), throughout",4.68 µM
ATCTACGAATTCATCAGGGCTAAAGAGTGCAGAGTTACTTAG [AptaMIP-2 oligo],Kd,"[1]; four carboxy-dT, evenly spaced, no central linker",2.33 µM
ATCTACGAATTCATCAGGGCTAAAGAGTGCAGAGTTACTTAG [AptaMIP-3 oligo],Kd,"[1]; three carboxy-dT, both ends and centre",9.75 µM
ATCTACGAATTCATCAGGGCTAAAGAGTGCAGAGTTACTTAG [AptaMIP-4 oligo],Kd,"[1]; three carboxy-dT near centre (9 bases free at 3', 14 at 5')",9.87 µM
ATCTACGAATTCATCAGGGCTAAAGAGTGCAGAGTTACTTAG [AptaMIP-5 oligo],Kd,"[1]; two carboxy-dT, one at each end (positions 1 and 6 of Fig. 1)",8.95 µM
ATCTACGAATTCATCAGGGCTAAAGAGTGCAGAGTTACTTAG [AptaMIP-6 oligo],Kd,[1]; one carboxy-dT at 3' end,4.68 µM
ATCTACGAATTCATCAGGGCTAAAGAGTGCAGAGTTACTTAG [AptaMIP-7 oligo],Kd,[1]; one carboxy-dT at 5' end,4.89 µM
ATCTACGAATTCATCAGGGCTAAAGAGTGCAGAGTTACTTAG [AptaMIP-8 oligo],Kd,[1]; one central carboxy-dT,4.17 µM
"ATCTACGAATTCATCAGGGCTAAAGAGTGCAGAGTTACTTAG (ssDNA, six carboxy-dT (ester or amide, polymerizable), throughout; embedded in imprinted polymer nanoparticle) [AptaMIP-1 oligo]",Kd,[2],0.00128 µM
"ATCTACGAATTCATCAGGGCTAAAGAGTGCAGAGTTACTTAG (ssDNA, three carboxy-dT near centre (9 bases free at 3', 14 at 5'); embedded in imprinted polymer nanoparticle) [AptaMIP-4 oligo]",Kd,[2],0.0427 µM
"ATCTACGAATTCATCAGGGCTAAAGAGTGCAGAGTTACTTAG (ssDNA, three carboxy-dT, both ends and centre; embedded in imprinted polymer nanoparticle) [AptaMIP-3 oligo]",Kd,[2],0.0012 µM
